The values that follow come from patent publication US20080281082 (published 2008).

This experiment has as its target Aβ (beta amyloid peptide) (human). Briefly: SPR. A general note: Surface plasmon resonance follows binding to a sensor surface in real time, without labels.

Where a chain is given by its changes, count along the chain named.

B1: humanized 3D6v2 (antibody, V domains shown)
VH: EVQLLESGGGLVQPGGSLRLSCAASGFTFSNYGMSWVRQAPGKGLEWVASIRSGGGRTYYSDNVKGRFTISRDNSKNTLYLQMNSLRAEDTAVYYCVRYDHYSGSSDYWGQGTLVTVSS
VL: DVVMTQSPLSLPVTPGEPASISCKSSQSLLDSDGKTYLNWLLQKPGQSPQRLIYLVSKLDSGVPDRFSGSGSGTDFTLKISRVEAEDVGVYYCWQGTHFPRTFGQGTKVEIK
As to B1, the affinity, expressed as Kd, was 2.24 nM.

B2: humanized 3D6v1 (antibody, V domains shown)
VH: B1 VH with S75A, T78S, V93L
VL: B1 VL with D1Y
Turning to B2, the dissociation constant Kd came to 2.06 nM.

Broadly, the Kd is the concentration at which binding is half-saturated. A high value points to weaker binding.
